# Source: the RNAGym collection of RNA variant scans (doi:10.1073/pnas.2313332121)
# Fewer inactive variants are shown than the library holds.
# B1: TPR 5TU (parent)
# chain: GGAUCUUCUCGAUCUAACAAAAAAGACAAAUCUGCCACAAAGCUUGAGAGCAUCUUCGGAUGCAGAGGCGGCAGCCUUCGGUGGCGCGAUAGCGCCAACGUUCUCAACUAUGACACGCAAAACGCGUGCUCCGUUGAAUGGAGUUUAUCAUG
# Variants of: B1
# Experiment: polymerase ribozyme fitness, log enrichment relative to wild type (log ratio); higher = more active; in vitro selection for triplet polymerase activity
# How it was run: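 Each subunit of a heterodimeric triplet polymerase ribozyme was mutagenized into a library by PCR, transcribed, and subjected to one round of in vitro selection, run in triplicate. Libraries were annealed with a biotinylated primer, the partner subunit and triplets, incubated frozen at −7 °C, and extended constructs were gel-excised, captured on streptavidin beads and recovered by RT-PCR. Input and output libraries were sequenced on Illumina, keeping genotypes with ≥10 input reads and ≥1 read per output. Fitness is log base 2 of genotype enrichment divided by wild-type enrichment, from inverse-variance-weighted replicate averages.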
row,Variant,polymerase ribozyme fitness (log ratio)
1,GGAUCUUCUCGAUCUAACAAUAAAGACAAAUCUGCCACAAAGCUUGAGAGCAUCUUAGGAUGCAGAGGCGGCAGCCUUCGGUGGCGCGAUAGCGCCAACGUUCUCAACUAUGACACGCAAAACGCGUGCUCCGUUGAAUGGAGUUUAUCAUG [A21U C57A],0.469
2,GGAUCUUCUCGAUCUAACAAUAAAGACAAAUUUGCCACAAAGCUUGAGAGCGUCUUCGGAUGCAGAGGCGGCAGCCUUCGGUGGAGCGAUAGCGCCAACGUUCUCAACUAUGACACGCAAAACGCGUGCUCCGUUGAAUGGAGUUUAUCAUG [A21U C32U A52G C85A],-4.08
3,GGAUCUUCUCGAUCUAACAAUAAAGACAAAUCUGCCACAAAGCUUGAGAGCAUCUUCGGGUGCACAGGCGGCAGCCUUCGGUGGCGCGAUAGCGCCAACGUUCUCAACUAUGACACGCAAAACGCGUGCUCCGUUGAAUGGAGUUUAUCAUG [A21U A60G G65C],-3.98
4,GGAUCUUCUCGAUCUAACAAUUAAGACAAAUCUGCCACAAAGCUUAACAGCAUCUACGGAUGCAGAGGCCGCAGCCUUCGGUUGCGCGAUAGCGCCAACGUUCUCAACUAUGACACGCAAAACACGUGCUCCGUUGAAUGGAGUUUAUCAUG [A21U A22U G46A G48C U56A G70C G83U G124A],≤ -4.2
5,GGAUCUUCUCGAUCUAACAAUAAAGACAAAUCUGCCACAAAGCUUGAGAGCAUCUUCGGAUGCAGAGGCGGCGGCCUUGGGUGUCGCGAUAGCGCCAACGUUCUCAACUAUGACACGCAAAACGCGUGCUCCGUUGAAUGGAGUUUAUGAUG [A21U A73G C79G G84U C149G],≤ -4.2
6,GGAUCUUCUCGAUCUAACAAUAAAGACAAAUCUGCCACAAAGCUUGAGAGCAUCUUCGGAUGCAGAGGCGGCAGCCUUCGGUGGCGCGAUUGCGCCAACGUUCUCAACUAUGACACGCAAAACGCGUGCUCCGUUGAAUGGAGUUUAUCAUG [A21U A91U],≤ -4.2
7,GGAUCUUCUCGAUCUAACAAUAAAGAGAAAUCUGCAACAAAGCUUGAGAGCAUCUUCGGAUGCAGAGGCGGCAGCCUUCGGUGGCGCGAUAGCGCCAACGUUCUCAACUAUGACACCCAAAACGCGUGCUCCGUUGAAUGGAGUUUAUCAUG [A21U C27G C36A G117C],-4.02
8,GGAUCUUCUCGAUCUAACAAUAAAGACAAAUCUGCCACAAAGCUUGAGAGCGUCUUCGGAUGCAGAGGCGGCAGCCUUCGGUGGCGCGAUAACGCCAACGUUCUCAACUAUGACACGCAAAACCCGUGCUCCGUUGAAUGGAGUUUAUCAUG [A21U A52G G92A G124C],-3.99
9,GGAUCUUCUCGAUCUAACAAUAAAGACAAAUCUGCCAGAAAGCUUGAGAGCAUCUUCGGAUGCAGAGGCGGCAGCCUUCGGUGACGCGAUAGCGCCAACGUUCUCAACUAUGACACGCAAAACGCGUGCUCCGUUCAAUGGAGUUUAUCAUG [A21U C38G G84A G136C],-3.78
10,GGAUCUUCUCGAUCUAACAAUAAAGACAAAUCUGCCAUAAAGCUUGAGAGCAUCUUCGGAUGCAGAGGCGGCAGCCUUCGGUGGCGCGAUAGCGCCAACGUUCUCAACUAUGACACGCAAAACGCGUGCUCCGUCGAAUGGAGUUUAUCAUG [A21U C38U U135C],-3.08
11,GGAUCUUCUCGAUCUAACAAUAAAGACAAAUCUGCCACAAAGCUUGAGAGCAUCUUCGGAUGCAGAGGCGGCAGCCUUCGGUGGCGAGAUAGCGCCAACGUUCUCAACUAUGACACCCAAAACGCGUGCUCCGUUGCAUGGUGUUUAUCAUG [A21U C87A G117C A137C A142U],≤ -4.2
12,GGAUCUUCUCGAUCUAACAAGAAAGACAAAUCUGCCACAAAGCUUGAGAGCAUCUGCGGAUGCAGAGGCGGCAGCCUUCUGUGGCGCAAUAGCGCCAACGUUCUGAACUAUGACACGCAUAACGCGUGCUCCGUUGAAUGGAGUUUAUUAUG [A21G U56G G80U G88A C105G A120U C149U],≤ -4.2
13,GGAUCUUCUCGAUCUAACAAUAAAGACAAAUCUGUCACAAAGCUUGAGAGCAUCUUCAGAUGCAGAGACGGCAGCCUUCGGUGGCGCGAUAGCGCCAACGUUCUCAACUAUGACGCGUAAAACGCGUGCUCCGUUGAAUGAAGUUUAUCAUG [A21U C35U G58A G68A A115G C118U G141A],≤ -4.2
14,GGAUCUUCUCGAUCUAACAAUAAAGACAAAUCUGCCACAAAGCUUGAGAGCAUCUUCGGAUGCAGAGGCGGCAGCCUUCGGUGGCGCGAUAGUGCCAACGUUCUCAACUAUGACACGCAAAACGCGUGCUCCGUUGAAUGGAGUUUAUCAUG [A21U C93U],-0.752
15,GGAUCUUCUCGAUCUAACAAUAAAGUCAGAUCUGACACAAAGCUUGAGAGCAUCUUCGGAUGCAGAGGCGGCAGCCUUCGGUGGCUCGAUAGCGCCAACGUUCUCAACUAUGACACGCAAAACGCGUGCUCCGUUGAAUGGAGUUUAUCAUG [A21U A26U A29G C35A G86U],-4.04
16,GGAUCUUCUCGAUCUAACAAUAAAGACAAAUCUGCCACAAAGCUUGAGAGCAUCUUCGGAUGCAGAGGCGGCAGCCUUCGGUGGCGCGAUAGCGCCAACGUUCUCAACUAUGACAUGCAAAACGCGUGCUCCGUUGAAUGGAGUUUAUCAUG [A21U C116U],0.00754
17,GGAUCUUCUCGAUCUAACAAUAAAGUCAAAUCUGCCACAUAGCUUGAGAGCAUCUUCGGAUGCAGAGGCGGCAGCCUUCGGUGGCGCGAUAGCGCCAACGUUCUCAACUAUGACACGCAAAACGCGUGCUCCGUUGAAUGGAGUUUAUCAUG [A21U A26U A40U],-3.62
18,GGAUCUUCUCGAUCUAACAAUAAAGACAAAUCUGACACAAAGCUUGAGAGCAUCUUCGGAUGCAGAGGCGGCAGCCUUCGGUGGCGCGAUAGCGCCAACGUUCUCUACUAUGACACGCUAAACGCGUGCUCCGUUGACUGGAGUUUAUCAUG [A21U C35A A106U A119U A138C],≤ -4.2
19,GGAUCUUCUCGAUCUAACAAUAAAGACAAAUCUGUCACAAAGCUUGAGAGCAUCUACGGAUGCAGAGGCGGCAGCCUUCGGUGGCGCGAUAGCGCAAACGUUCUCAACUAUGACACGCAAAACGCGUGCUCCGUUGAAUGGUGUUUAUCAUG [A21U C35U U56A C96A A142U],-2.21
